Values of other authors in PMC2589311.
Like-named read-outs stand apart in the source and are kept apart here.

Tests used:
[1] = target: IL-1 receptor (synovial cells) (Homo sapiens) (UniProt P14778)
[2] = target: second IL-1 receptor, 68 kDa (RAJI cells) (Homo sapiens) (UniProt P27930)
[3] = target: IL-1 receptor (synovial cells) (Homo sapiens) (UniProt P14778); remark: listed apart in the source

Chain of UniProt P14778 (P14778 18-569): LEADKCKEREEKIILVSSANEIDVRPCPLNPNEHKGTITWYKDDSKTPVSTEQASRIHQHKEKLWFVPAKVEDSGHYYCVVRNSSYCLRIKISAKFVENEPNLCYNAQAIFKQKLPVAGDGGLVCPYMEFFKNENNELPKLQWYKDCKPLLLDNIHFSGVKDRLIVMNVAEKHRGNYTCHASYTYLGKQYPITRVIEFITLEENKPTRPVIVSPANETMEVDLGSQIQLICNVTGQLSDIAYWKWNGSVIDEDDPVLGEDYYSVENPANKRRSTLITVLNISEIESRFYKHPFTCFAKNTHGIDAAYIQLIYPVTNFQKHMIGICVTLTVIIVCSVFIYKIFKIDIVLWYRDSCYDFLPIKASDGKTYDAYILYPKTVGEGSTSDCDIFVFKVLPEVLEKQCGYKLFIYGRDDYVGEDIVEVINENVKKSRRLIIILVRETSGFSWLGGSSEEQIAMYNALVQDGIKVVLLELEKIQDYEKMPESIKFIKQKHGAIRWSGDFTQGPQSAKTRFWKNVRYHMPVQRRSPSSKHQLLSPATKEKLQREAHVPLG
Chain of UniProt P27930 (P27930 14-398): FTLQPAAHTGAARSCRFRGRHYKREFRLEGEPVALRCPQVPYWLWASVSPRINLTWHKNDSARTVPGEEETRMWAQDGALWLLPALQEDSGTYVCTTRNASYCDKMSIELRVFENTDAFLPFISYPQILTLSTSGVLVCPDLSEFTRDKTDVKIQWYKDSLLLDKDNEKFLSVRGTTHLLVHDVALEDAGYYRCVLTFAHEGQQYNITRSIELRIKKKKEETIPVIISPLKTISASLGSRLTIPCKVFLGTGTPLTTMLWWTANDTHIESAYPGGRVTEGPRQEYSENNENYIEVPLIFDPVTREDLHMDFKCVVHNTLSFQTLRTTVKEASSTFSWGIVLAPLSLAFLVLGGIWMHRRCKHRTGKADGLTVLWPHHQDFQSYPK

For IL-1alpha (from UniProt P01583), the Kd [1] is given as 0.066 nM.
For IL-1beta (from UniProt P01584), the Kd [2] is given as 2.2 nM and the Kd [3] is given as 0.004 nM.
